{
  "source": "patent US20250361544A1",
  "about": "“TYPE III-D CRISPR-CAS SYSTEM AND USES THEREOF” (BOARD OF REGENTS, THE UNIVERSITY OF TEXAS SYSTEM, published 2025)",
  "binders": {"B1": {"name": "Csx19 subunit of the Synechocystis sp. PCC 6803 Type III-Dv complex (other)", "chain": "MPAGGRLMKNLYHYHQYEITLESAVDSCKNHLQAAIGLLYSPQKCELVKLDNSGKLVDSYNRLKFNNLGVFEARFFNLNCELRWVNESNGNGTAVLLSESDITLTGFEKGLQEFITAIDQQYLLWGEPAKHPPNADGWQRLAEARIGKLDIPLDNPLKPKDRVFLTSEEYIAEVDDFGNCAVIDERLIKLEVK", "notes": "Untagged, co-expressed from pPF2434 in E. coli; one copy in the complex"}, "B2": {"name": "mature crRNA spacer 1 (ssRNA)", "RNA": "ACUGAAACUGUAGUAGAACCAAUCGGGGUCGUCAAUA"}, "B3": {"name": "Cas7-Cas5-Cas11 fusion subunit of the Synechocystis sp. PCC 6803 Type III-Dv complex (other)", "chain": "MRGIEITITMQSDWHVGTGMGRGELDSVVQRDGDNLPYIPGKTLTGILRDSCEQVALGLDNGQTRGLWHGWINFIFGDQPALAQGAIEPEPRPALIAIGSAHLDPKLKAAFQGKKQLQEAIAFMKPGVAIDAITGTAKKDFLRFEEVVRLGAKLTAEVELNLPDNLSETNKKVIAGILASGAKLTERLGGKRRRGNGRCELKFSGYSDQQIQWLKDNYQSVDQPPKYQQNKLQSAGDNPEQQPPWHIIPLTIKTLSPVVLPARTVGNVVECLDYIPGRYLLGYIHKTLGEYFDVSQAIAAGDLIITNATIKIDGKAGRATPFCLFGEKLDGGLGKGKGVYNRFQESEPDGIQLKGERGGYVGQFEQEQRNLPNTGKINSELFTHNTIQDDVQRPTSDVGGVYSYEAIIAGQTFVAELRLPDSLVKQITSKNKNWQAQLKATIRIGQSKKDQYGKIEVTSGNSADLPKPTGNNKTLSIWFLSDILLRGDRLNFNATPDDLKKYLENALDIKLKERSDNDLICIALRSQRTESWQVRWGLPRPSLVGWQAGSCLIYDIESGTVNAEKLQELMITGIGDRCTEGYGQIGFNDPLLSASLGKLTAKPKASNNQSQNSQSNPLPTNHPTQDYARLIEKAAWREAIQNKALALASSRAKREEILGIKIMGKDSQPTMTQLGGFRSVLKRLHSRNNRDIVTGYLTALEQVSNRKEKWSNTSQGLTKIRNLVTQENLIWNHLDIDFSPLTITQNGVNQLKSELWAEAVRTLVDAIIRGHKRDLEKAQENESNQQSQGAA", "notes": "Untagged, co-expressed from pPF2434 in E. coli; one copy in the complex; also called Cas7-5-11; Cas5-Cas7-Cas11"}},
  "key": {"[1]": {"target": "T1, Cas10 subunit of the Synechocystis sp. PCC 6803 Type III-Dv CRISPR-Cas complex, with N-terminal His6 tag and … (Synechocystis sp. PCC 6803)", "T1 construct": "Whole gene amplified from Synechocystis genomic DNA and co-expressed in E. coli from pPF2434; The complex also holds a 37-nt crRNA; also called His6-TEV-Cas10; N-His6-tagged Cas10; not shown: TEV cleavage was inefficient, so", "T1 chain": "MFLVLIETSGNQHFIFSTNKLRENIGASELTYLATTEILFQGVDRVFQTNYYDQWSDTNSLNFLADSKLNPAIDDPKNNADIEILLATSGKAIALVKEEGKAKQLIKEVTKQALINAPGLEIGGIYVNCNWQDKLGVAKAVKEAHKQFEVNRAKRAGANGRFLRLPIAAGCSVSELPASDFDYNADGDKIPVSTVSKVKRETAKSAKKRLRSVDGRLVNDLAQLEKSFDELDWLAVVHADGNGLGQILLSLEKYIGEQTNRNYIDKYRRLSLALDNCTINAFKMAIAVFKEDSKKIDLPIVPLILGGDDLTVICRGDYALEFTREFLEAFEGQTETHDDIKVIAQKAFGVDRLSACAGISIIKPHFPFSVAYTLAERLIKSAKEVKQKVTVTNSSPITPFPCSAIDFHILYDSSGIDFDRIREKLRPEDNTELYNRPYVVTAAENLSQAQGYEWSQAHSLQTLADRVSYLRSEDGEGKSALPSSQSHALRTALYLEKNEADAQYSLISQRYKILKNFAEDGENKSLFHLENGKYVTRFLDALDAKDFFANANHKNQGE", "assay": "cryo-EM structure (summary of Example 1)", "description": "(§1) Fully assembled Type III-D binary complex was diluted to a concentration of 0.3 mg/ml in SEC buffer before 2.5 μl of sample was added to a quantifoil 1.2/1.3 grid that was glow discharged for 1 minute. Sample was applied to the grid in an FEI Vitrobot MarkIV kept at 100% humidity and 4° C. before blotting for 5.5 seconds with a force of 0. For the ssRNA target-bound complex, non-self ssRNA was mixed with the binary complex with a 2:1 molar ratio of RNA:Binary complex in SEC buffer to a final protein concentration of 0.3 mg/mL. Grids of the target-bound complex were frozen identical to that of the binary complex. Both grids were loaded to an FEI Titan Krios (Sauer Structural Biology Lab, University of Texas at Austin) operating at 300 kV. Images were taken at a pixel size of 0.81 Å/pixel with a dose rate of 10.6 e⁻/pixel/s for 5 seconds using a Gatan K3 direct electron detector, giving a final dosage of 80.5 e⁻/Å². Data collection was automated using SerialEM using a defocus range of −1.2 to −2.2 μm."}, "[2]": {"target": "B3", "assay": "cryo-EM structure (summary of Example 1)", "description": "as §1"}, "[3]": {"target": "Type III-Dv effector complex (Cas10, Cas7-Cas5-Cas11, Cas7-2x, Csx19, Cas7-insertion) (Synechocystis sp. PCC 6803)", "assay": "structure; cryo-EM 2.5 A binary complex with 37-nt crRNA", "details": "tags: N-terminal His6-TEV on Cas10", "description": "as §1\n(§2) To delineate the architecture of this Type III-Dv effector, we used cryo-EM to determine a 2.5-Å resolution structure of the complex containing the nt crRNA (FIG. 1e,f, FIG. 8). To gain preliminary insights, we generated initial models of each subunit using Alphafold 2. […]"}, "[4]": {"target": "T2, Cas7-Cas7 fusion subunit of the Synechocystis sp. PCC 6803 Type III-Dv complex (Synechocystis sp. PCC 6803)", "T2 construct": "Untagged, co-expressed from pPF2434 in E. coli; one copy in the complex; also called Cas7-2x; Cas7_2x", "T2 chain": "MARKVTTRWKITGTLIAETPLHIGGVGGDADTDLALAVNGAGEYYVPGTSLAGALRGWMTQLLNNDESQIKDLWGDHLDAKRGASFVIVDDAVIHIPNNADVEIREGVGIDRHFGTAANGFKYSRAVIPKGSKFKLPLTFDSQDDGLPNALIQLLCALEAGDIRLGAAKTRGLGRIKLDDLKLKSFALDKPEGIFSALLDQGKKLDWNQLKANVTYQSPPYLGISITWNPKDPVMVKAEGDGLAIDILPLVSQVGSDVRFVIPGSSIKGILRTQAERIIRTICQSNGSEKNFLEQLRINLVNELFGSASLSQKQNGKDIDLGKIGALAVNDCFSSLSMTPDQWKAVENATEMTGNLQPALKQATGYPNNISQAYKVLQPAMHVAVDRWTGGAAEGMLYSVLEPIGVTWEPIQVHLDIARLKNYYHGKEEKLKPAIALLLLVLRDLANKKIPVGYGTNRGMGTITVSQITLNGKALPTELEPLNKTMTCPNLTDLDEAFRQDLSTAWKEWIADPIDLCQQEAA", "assay": "cryo-EM structure of the binary complex, 2.5 Å", "description": "as §1, §2"}},
  "data": [
    {"binder": "B1", "values": [
      {"measurement": "binding result", "setting": "[1]", "result": "binds"},
      {"measurement": "binding result", "setting": "[2]", "result": "binds"}
    ]},
    {"binder": "B2", "values": [
      {"measurement": "binding result", "setting": "[3]", "result": "binds"}
    ]},
    {"binder": "B3", "values": [
      {"measurement": "binding result", "setting": "[4]", "result": "binds"}
    ]}
  ]
}
